From paper PMC2777681

How the values were obtained:
[1] = target: full-length purified recombinant EWS-FLI1; assay: SPR
[2] = target: full-length purified recombinant EWS-FLI1; assay: co-IP

B1: E9R peptide, Q08211 823-832 (peptide)
peptide: PPPLDAVIEA
[1]
  response units at 32 μM E9R: 13 R.U.
  response units at 32 μM E9R with 10 μM YK-4-279: 5 R.U.
  response units at 64 μM E9R: 17 R.U.
  response units at 64 μM E9R with 10 μM YK-4-279: 7 R.U.
[2]
  percent of the GST-RHA(647-1075)/EWS-FLI1 association left with 0.1 μM E9R: 50%
